Test results: the Immune Epitope Database (IEDB)

Tests used:
[1] = biological target: HLA-B*27:05; assay: IEDB peptide-MHC binding, purified MHC/direct/fluorescence; filed as Kd, often an IC50 or EC50 that approximates it; ≥ and ≤ were set here for values at or beyond the usual limits of such assays
[2] = biological target: HLA-B*57:01; assay: as above
[3] = biological target: HLA-B*15:01; assay: as above; conditions: source organism: Mycobacterium tuberculosis
[4] = biological target: HLA-A*01:01; assay: as above
[5] = biological target: HLA-A*03:01; assay: as above
[6] = biological target: HLA-B*44:02; assay: as above
[7] = biological target: HLA-B*07:02; assay: as above
[8] = biological target: HLA-A*11:01; assay: as above; conditions: source organism: Mycobacterium tuberculosis
[9] = biological target: HLA-B*39:01; assay: as above
[10] = biological target: HLA-B*58:01; assay: as above
[11] = biological target: HLA-A*31:01; assay: as above
[12] = biological target: HLA-B*46:01; assay: as above; conditions: source organism: Mycobacterium tuberculosis
[13] = biological target: HLA-B*15:01; assay: IEDB peptide-MHC binding, purified MHC/competitive/fluorescence; ≥ and ≤ were set here for values at or beyond the usual limits of such assays
[14] = biological target: HLA-A*01:01; assay: as above
[15] = biological target: HLA-B*53:01; assay: IEDB peptide-MHC binding, purified MHC/competitive/radioactivity; filed as Kd, often an IC50 or EC50 that approximates it; ≥ and ≤ were set here for values at or beyond the usual limits of such assays; conditions: source organism: Dengue virus 3 Martinique/1243/1999
[16] = biological target: HLA-B*51:01; assay: IEDB peptide-MHC binding, purified MHC/direct/fluorescence; filed as Kd, often an IC50 or EC50 that approximates it; ≥ and ≤ were set here for values at or beyond the usual limits of such assays; conditions: source organism: dengue virus type 3
[17] = biological target: HLA-A*02:01; assay: IEDB peptide-MHC binding, purified MHC/competitive/fluorescence; ≥ and ≤ were set here for values at or beyond the usual limits of such assays; conditions: source organism: Vaccinia virus WR
[18] = biological target: HLA-A*24:02; assay: as above; conditions: source organism: Vaccinia virus WR
[19] = biological target: HLA-A*32:01; assay: IEDB peptide-MHC binding, purified MHC/competitive/radioactivity; filed as Kd, often an IC50 or EC50 that approximates it; ≥ and ≤ were set here for values at or beyond the usual limits of such assays; conditions: source organism: Vaccinia virus WR
[20] = source organism: Mycobacterium tuberculosis
[21] = source organism: Zaire ebolavirus
[22] = source organism: Vaccinia virus WR
[23] = source organism: Mammarenavirus lassaense

Which Kd [1, 20] does the source give for FHVNPAFVL here?
Its Kd is no less than 20 µM.

What about the Kd [2, 20] of the same sequence?
Its Kd is no less than 20 µM.

What about the Kd [3] of the same sequence?
The Kd was no less than 20 µM.

What about the Kd [4, 20] of the same sequence?
The Kd was no less than 20 µM.

What about the Kd [5, 20] of the same sequence?
The Kd was no less than 20 µM.

And the Kd [6, 20]?
Its Kd is no less than 20 µM.

And the Kd [7, 20]?
The Kd was no less than 20 µM.

What about the Kd [8] of the same sequence?
The Kd was no less than 20 µM.

What about the Kd [9, 20] of the same sequence?
Its Kd is 0.014 µM.

And the Kd [10, 20]?
The Kd was no less than 20 µM.

And the Kd [11, 20]?
The Kd was no less than 20 µM.

And the Kd [12]?
Its Kd is no less than 20 µM.

What does the source list for FSTSDGKEY?
IC50 [13, 21]: 11.6 µM; IC50 [14, 21]: 14.3 µM

How did the IC50 ([14]; source organism: Sudan ebolavirus) turn out when HKDGAFFLY was run?
The IC50 was 6.35 µM.

Which Kd [15] does the source give for HPGFTILAL here?
Its Kd is 0.0003 µM.

What about the Kd [16] of the same sequence?
The Kd was no less than 20 µM.

Which IC50 [13, 22] does the source give for KMDNGTLEF here?
Its IC50 is 24.4 µM.

What about the IC50 [14, 22] of the same sequence?
The IC50 was 15 µM.

And the IC50 [17]?
Its IC50 is 6.36 µM.

And the IC50 [18]?
The IC50 was 1.06 µM.

What about the Kd [19] of the same sequence?
The Kd was 0.000923 µM.

MRMGDLHLL was tested. Which Kd ([9]; source organism: Influenza A virus (A/swine/Italy/1850/1977(H3N2))) did it give?
The Kd was 0.0396 µM.

NQFGTMPSL was tested. Which Kd [1, 23] did it give?
Its Kd is no less than 20 µM.

And the Kd [2, 23]?
Its Kd is no less than 20 µM.

And the Kd [4, 23]?
Its Kd is no less than 20 µM.

What about the Kd [5, 23] of the same sequence?
Its Kd is no less than 20 µM.

And the Kd [6, 23]?
Its Kd is no less than 20 µM.

What about the Kd [7, 23] of the same sequence?
Its Kd is no less than 20 µM.

And the Kd [9, 23]?
Its Kd is 0.0011 µM.

What about the Kd [10, 23] of the same sequence?
The Kd was no less than 20 µM.

What about the Kd [11, 23] of the same sequence?
The Kd was no less than 20 µM.
